Experimental findings from the domain aggregation screens of Martell et al. (2025) are described below.
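Note: 20 min heating vs room temperature control held 20 min.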

This data set in a line: soluble fraction after stress (log2 fold change); higher = more stays soluble; pooled small domains, quantitative proteomics. The conditions noted are these: stress: 75 degC.
For the sequence “HMDKPGMRLNQFIAHSGISSRREADNLIKAGLVQVNGKIIVEMGFRVMPTDIVKFNNETIAS”, the “soluble fraction (log2)” value was -2.08. As to “HMDKPIVFLEDTKAHKSSDLQSPVYMTVPKGTIAFVIAEKGDWSQVYAGRVLDRNLASQWVRRGFS”, the “soluble fraction (log2)” value is 0.267. Consider “HMDKSLDFASIKSVEIATGRKFGWHALKKWSKSNSSEIKTIPDPNFGEVKTYHKDAWLAVYNINLSPILD”, for which the “soluble fraction (log2)” value was -0.376. With “HMDKSPMIGTAEYEGVLYWRQTKDNGATWEWITDKNGDKMPVSGPAPAVGIDKDGYWTVNGESTGVLAKD” the figure was 0.225; with “HMDKVSYALGLGIGRQLTDMGAKDLNIDDFAQAIKDVLAGGEVKLSDAEAQTIVRNFFDEQEKKQRA”, -0.029; with “HMDLANLQNGQTLPLQRDVEVISIPFGKTISLSEDSVVSIMQAKGSSVSVAYEGRLYLIEGSNLDALGLEP”, -1.1. On to “HMDLANRSLDRGITILESLARNGASSLADLHRDSGIAKSTIRRLLGTLIQHRLVRRSVADGLYRVTIPLPA”, for which the “soluble fraction (log2)” value is -1.42. For “HMDLDIQNYNLDEILELFKVSYDFDETELKKAHKMYLMTHPDKSNLNPNIFLFFVQAYDILRKLYEFR” the value was -0.691; for “HMDLDIRDDIYRANIPNDYKLQQMQNNIDYDKVLTGYYNNRPEANVIANRTLQLANDVYNRD”, 0.00307. On to “HMDLDLNIDNYNFDDLLNLFGLKMKFSEDDLKKAKRSVLMTHPDKSGLDKQYFMFFTKAYKMLSQIYYFR”, for which the “soluble fraction (log2)” value was determined as 0.572. For “HMDLDPNKPAIPIAYPRVLLNIMAEKGFSRTEVLAGSGLADSVFDKPDHRITPAQFLFILMNSFYLS” the value was -0.67. Take “HMDLFLVYQFIRRLATPFTEWKAHELGIIDDKGVQLKKRRDFTTREEKDAYGIFDIMITKLKRLIEKV”: the “soluble fraction (log2)” value came to 0.0817. For “HMDLFSAVVHHIVGQQISTKAQATIWKRMRDEFGVVDAAAVLGAGVEKLQSFGMTFRKAEYITDFARKIE” the value was -2.61; for “HMDLGLTDDQRLVYGLLSPTVPRSSGELLGMVDFGRSKLSRILKELIELGQVFTVGVGRGLKYKRG”, -0.482. For “HMDLGTHMRLIVPTGMRVDHIVYESNGKNISVDHDRSISVRWNGEVVSIDVSPLPSRPDFDVLIYMSPK” the value was -0.134; for “HMDLLAESLTRREAEVAALAARGLTNRAIAELFGLSVRTAETHLHRAMGKLGANRREDLLLHADRLDPG”, -1.41; for “HMDLLESLSAREREVVHLASRGLVNKLIARELGITERTVKAHLSSAFEKLHIKDRVHLALLVNGI”, -2.46.

Turning to “HMDLLKANNLSQINVDKLTDEEILKYSQQLKQSGLTESQAEQIAIARGMPATEIAKLKQRLISLTNMQ”, the “soluble fraction (log2)” value was 0.118.

Consider “HMDLLVWRVADEDAGERIDKLVVDSLDDVSRTAVQQWIKDGLVTVNGKTVKPNYKAAAGDEVAVSVPEPE”, for which the “soluble fraction (log2)” value amounted to 0.239. With “HMDLMKKTLTKEMLLIDFMKQQFPDSSTNKLRKMLSSGRVKINNLITHKAKSQLKLGDIFELANKPHD” the figure was -1.31; with “HMDLPGIVTETDRQRADLAARIGAAKVEAVLAGGARSVEADEDFDADTRRELHQFLTRMARRAFLEER”, 0.1. With “HMDLPSSETLKVKLNLAKAYVTIEDFGAARRALDEVLSVSSLVDPDLTIQAKSLLAEIDQRS” the figure was -0.352; with “HMDLQAAWLQTVRHLLAHTEDVGDRFAEEARRIHYGEEPHRGIRGQATPEERLALREEGIETMSIPV”, -0.919.

In the case of “HMDLQHQLTPRLKRLRLSGILETLEVRNQQAIAEKWSYVEFLTRLAEDEVERRDHKQLTLRLR”, the “soluble fraction (log2)” value is -0.529. With “HMDLSYPFTTVTTDNVNMRRSASSSSVVLERIDKGDSITVLGTSGNYYKVSYNDRTGYVLKQYVDVSAATT” the figure was -0.254; with “HMDLTPEEQMDLYRLLDSLPTEERTYLILHYFEERSFPEMAEILSMPEAKLKSRFYRILHRLRAHL”, -2.74; with “HMDLTSDANLKEAKDQILNLLNDGKRHHVTEINKILLPPVQVQEALRFLIHEETVRVDASFLF”, -0.104. For “HMDLVESYDLKIIYTSELINLLIDSSRLEEALNLFKDLKDEIDDVENLGFSAKNNLDYMESKLLHLG” the value was -1.94.
